# Measurements as given in patent publication US11994512B2, “Single-cell genomic methods to generate ex vivo cell systems that recapitulate in vivo biology with improved fidelity” (Massachusetts Institute of Technology, priority 2018, dated 2024).
# B1: Q8C159 (protein, UniProt Q8C159 1-568, looked up)
# chain: MTEAEVGAEDLDTLLDELDYLPGHFHLEMQLNFEPRSPAQLRARDLKLQREGLRQELELVATPQLPAVRHLLGTFSFYLEELGDAREHFLEVARKDPGNLNAWANLAHVYGQLGQEEEEEASAGRLASLMGLEGDPEDAGDPRLRAARCLAEQGYAHGFDVGCASPEERAQVLEAGIALYDKALGYGQQIPIEEKRSWYFTMATLFIRLDGIFLEMGSEEQKRLPAFNRTLALLGEVLKSSDSRHQALAWCYVGMLLERKDTFSTTPMGVHEYGYSGTEPLDCFGKAIEIAKNQPPILNRLAKIFHFLGKQDMAVGTCNMVLAVLTDPELNWQAYCTRAKVRIRAYVHDLERAKVGLGGLPDRNHLACAKADLEEVVKVCPSLRTYLDISQVYYYMGVDAMRELLAVDEAALNQALVFLAKAGELELGDTLPELQLLRGKCLRVQGEDANAAACFKRAVELDDEGSSHTEGFGCLLEALLAQWSQAQLSDGEVGYEVDVWLRHAQGKYPAARLRQELQRVWRGHTEEVLGLARALVAQGRPALVRLLFETMEHEGEDAGGSGKSRVSS
# modifications: full-length
# B2: Q8BW75 (protein, UniProt Q8BW75 1-520, looked up)
# chain: MSNKSDVIVVGGGISGMAAAKLLHDCGLSVVVLEARDRVGGRTYTIRNKNVKYVDLGGSYVGPTQNRILRLAKELGLETYKVNEVERLIHFVKGKSYAFRGPFPPVWNPITYLDNNNLWRTMDEMGQEIPSDAPWKAPLAEEWDYMTMKELLDKICWTKSTKQIATLFVNLCVTAETHEVSALWFLWYVKQCGGTTRIISTTNGGQERKFIGGSGQVSERIKDILGDRVKLERPVIHIDQTGENVIVKTLNHEIYEAKYVISAIPPALGMKIHYSPPLPMLRNQLISRVPLGSVIKCMVYYKEPFWRKKDFCGTMVIEGEEAPIAYTLDDTKPDGTYAAIMGFILAHKARKLVRLTKEERLRKLCELYAKVLNSQEALQPVHYEEKNWCEEQYSGGCYTTYFPPGILTQYGRVLRQPVGKIFFAGTETASHWSGYMEGAVEAGERAAREILHAIGKIPEDEIWQPEPESLDVPARPITSTFLERHLPSVPGLLKLFGLTTILSATALGFLAHKRGLFVHF
# modifications: full-length
# B3: Q8BZ20 (protein, UniProt Q8BZ20 1-711, looked up)
# chain: MAQAAVAVAEVTQLLCAAGGALELAELRRRLRTSLGTDALERLLRDCGRFVVASRAVVAVGAGREAAAAASERLVLAVSSLRLCRAHQGPKPGCTGLCAQLHLCKFLIYGNCKFLKTGKNCRNGHNLKTDHNLSVLRTHGVDHLTYTELCQLLLQNDPSLLPDICLHYNKGDGPFGSCSFQKQCIKLHICQYFLQGECKFGTSCKRSHEFTNSESLEQLERLGLSSDLVSRLLSTYRNAYDIKNKGSALSKVSPSPAGPQGSSERKDSSGPVSPGTPSQEESEQICLYHIRKSCSFQEKCHRVHFHLPYRWQFLDGGKWKDLDNMELIEEAYSNPSKDRIVYTESAAGFHFDNLDFNSMKFGNTLARRLSTASSVTKPPHFILTTDWIWYWMDEFGSWQEYGRQGSGHPVTTISSSDVERAYLAFCAPGADAQAATLKFQAGKHNYELHFKAFLQKNLVYGTIRKVCRRPKYVSPQDVQMKQSCNTKLHGPKSIPDYWDPAALPDLGFKKITLSSSSEEYQKVWNIFNRTLPFYFVQKIERIQNMGLWEVYQWQKCQMQKQNGGKEVDERQLFHGTSANFVDAICQQNFDWRVCGLHGTSYGKGSYFARDAAYSHHYSKSDTHSHMMFLARVLVGDFVRGSTSFVRPPAKEGQSNAFYDSCVNSMSDPTIFVVFEKHQVYPEYLIQYSTSSKPPASPSIFVALGNLFTSRQ
# modifications: full-length
# Tested on: intracellular proteome of ENR+CD and ENR organoids
# Assay: LC-MS/MS TMT proteomics of ENR+CD versus ENR organoids
# Format: cell-based, C57BL/6 mice
# Details: ENR+CD versus ENR organoids, sample pairs in aggregate (n=4, 2 technical replicates from two biological donors)
row,Molecule,Average logFC
1,B1,−1.177
2,B2,−1.176
3,B3,1.138

# Same assay, conditions: protein abundance ratio ENR+CD versus ENR organoids, sample pair M1-1; LC-MS/MS TMT proteomics
row,Molecule,M1-1 Log2 Median Normalized
1,B1,−0.633
2,B2,−0.94
3,B3,1.138

# Same assay, conditions: protein abundance ratio ENR+CD versus ENR organoids, sample pair M1-2; LC-MS/MS TMT proteomics
row,Molecule,M1-2 Log2 Median Normalized
1,B1,−1.446
2,B2,−1.056
3,B3,0.69

# Same assay, conditions: protein abundance ratio ENR+CD versus ENR organoids, sample pair M2-1; LC-MS/MS TMT proteomics
row,Molecule,M2-1 Log2 Median Normalized
1,B1,−1.1765
2,B2,−1.8625
3,B3,1.1465

# Same assay, conditions: protein abundance ratio ENR+CD versus ENR organoids, sample pair M2-2; LC-MS/MS TMT proteomics
row,Molecule,M2-2 Log2 Median Normalized
1,B1,−1.271
2,B2,−1.177
3,B3,1.295

# Same assay, conditions: up = enriched in ENR+CD, down = enriched in ENR; FDR<0.05 and log fold change cut-off
row,Molecule,change
1,B1,down
2,B2,down
3,B3,up
